From the supplement of paper PMC10567573

B1: PLD5 (parent)
chain: KRTYWPDLDAKIREALVLRSVRVR
B2: SNAP91 (parent)
chain: FATASAAVPVSTSKPSSDLLDLQP

Variants of: B1
Assay: protein stability index of a GFP-peptide fusion (GPS, HEK-293T) (PSI 1-6); higher = more stable
Details: c terminus: a fixed tail appended
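Also: lentivirally expressed fusions sorted by FACS into six bins by GFP to DsRed ratio, PSI derived from sequencing read proportions per bin multiplied by bin number.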

Row | Variant | protein stability index
1 | KRTYWPDLDARIREALVLRSVRVR [K11R] | 1.47
2 | KRTYWPDLDAKIREQLVLRSVRVR [A15Q] | 2.04
3 | KRTYWSDLDAKIREALVLRSVRVR [P6S] | 1.67
4 | KRTYWQDLDAKIREALVLRSVRVR [P6Q] | 3.34
5 | KRTYWPDLDAKIREANVLRSVRVR [L16N] | 2.61
6 | KRTYWPDLDAKIREADVLRSVRVR [L16D] | 2.8
7 | KRTGWPDLDAKIREALVLRSVRVR [Y4G] | 2.01
8 | KRTVWPDLDAKIREALVLRSVRVR [Y4V] | 3.54
9 | KRTYWPDLDAKIREALVLQSVRVR [R19Q] | 2.53
10 | KRTYWPDYDAKIREALVLRSVRVR [L8Y] | 3.05
11 | KRTYWPDLDAKKREALVLRSVRVR [I12K] | 2.41
12 | KRTYWPDLDAKIRCALVLRSVRVR [E14C] | 1.46
13 | KRTYWPDLDAKIREALVIRSVRVR [L18I] | 1.64
14 | KRTYWPDLDAKIREALVMRSVRVR [L18M] | 1.51
15 | KRTYWPDLDAKIREALVLRSVRTR [V23T] | 1.88
16 | KRTYWPDLDAKIKEALVLRSVRVR [R13K] | 1.9

Variants of: B2
Assay: as above
Details: c terminus: a fixed tail appended

Row | Variant | protein stability index
17 | FATASQAVPVSTSKPSSDLLDLQP [A6Q] | 3.67
18 | FATASGAVPVSTSKPSSDLLDLQP [A6G] | 3.5
19 | FATASHAVPVSTSKPSSDLLDLQP [A6H] | 3.19
20 | FATASRAVPVSTSKPSSDLLDLQP [A6R] | 3.31
21 | FATASIAVPVSTSKPSSDLLDLQP [A6I] | 2.41
22 | FATASPAVPVSTSKPSSDLLDLQP [A6P] | 3.54
23 | FATASVAVPVSTSKPSSDLLDLQP [A6V] | 2.98
24 | FATASYAVPVSTSKPSSDLLDLQP [A6Y] | 1.96
25 | FATASEAVPVSTSKPSSDLLDLQP [A6E] | 4.31
26 | FATASFAVPVSTSKPSSDLLDLQP [A6F] | 2.31
27 | FATASWAVPVSTSKPSSDLLDLQP [A6W] | 4.07
28 | FATASKAVPVSTSKPSSDLLDLQP [A6K] | 4.23
29 | FATASTAVPVSTSKPSSDLLDLQP [A6T] | 3.5
30 | FATASDAVPVSTSKPSSDLLDLQP [A6D] | 4.22
31 | FATASMAVPVSTSKPSSDLLDLQP [A6M] | 2.92
32 | FATASCAVPVSTSKPSSDLLDLQP [A6C] | 2.46
33 | FATASNAVPVSTSKPSSDLLDLQP [A6N] | 4.69
34 | FATASSAVPVSTSKPSSDLLDLQP [A6S] | 3.78
35 | FATASLAVPVSTSKPSSDLLDLQP [A6L] | 2.47
36 | FATASAAVPCSTSKPSSDLLDLQP [V10C] | 3.18
37 | FATASAAVPFSTSKPSSDLLDLQP [V10F] | 2.69
38 | FATASAAVPHSTSKPSSDLLDLQP [V10H] | 4.01
39 | FATASAAVPGSTSKPSSDLLDLQP [V10G] | 3.37
40 | FATASAAVPASTSKPSSDLLDLQP [V10A] | 3.87
41 | FATASAAVPESTSKPSSDLLDLQP [V10E] | 4.23
42 | FATASAAVPDSTSKPSSDLLDLQP [V10D] | 4.18

Row | Variant | protein stability index
43 | FATASAARPVSTSKPSSDLLDLQP [V8R] | 3.79
44 | FATASAAMPVSTSKPSSDLLDLQP [V8M] | 3.02
45 | FATASAAIPVSTSKPSSDLLDLQP [V8I] | 3.93
46 | FATASAALPVSTSKPSSDLLDLQP [V8L] | 3.37
47 | FATASAAEPVSTSKPSSDLLDLQP [V8E] | 3.99
48 | FATASAAKPVSTSKPSSDLLDLQP [V8K] | 4.13
49 | FATASAANPVSTSKPSSDLLDLQP [V8N] | 4.32
50 | FATASAAAPVSTSKPSSDLLDLQP [V8A] | 3.58
51 | FATASAACPVSTSKPSSDLLDLQP [V8C] | 3.38
52 | FATASAAQPVSTSKPSSDLLDLQP [V8Q] | 4.2
53 | FATASAAWPVSTSKPSSDLLDLQP [V8W] | 1.88
54 | FATASAASPVSTSKPSSDLLDLQP [V8S] | 3.87
55 | FATASAADPVSTSKPSSDLLDLQP [V8D] | 4.64
56 | FATASAAHPVSTSKPSSDLLDLQP [V8H] | 4.27
57 | FATASAAYPVSTSKPSSDLLDLQP [V8Y] | 3.09
58 | FATASAATPVSTSKPSSDLLDLQP [V8T] | 4.12
59 | FATASAAPPVSTSKPSSDLLDLQP [V8P] | 4.07
60 | FATASAAFPVSTSKPSSDLLDLQP [V8F] | 3.11
61 | FATASAAGPVSTSKPSSDLLDLQP [V8G] | 4.52
62 | FATKSAAVPVSTSKPSSDLLDLQP [A4K] | 3.8
63 | FATYSAAVPVSTSKPSSDLLDLQP [A4Y] | 3.73
64 | FATDSAAVPVSTSKPSSDLLDLQP [A4D] | 4.72
65 | FATTSAAVPVSTSKPSSDLLDLQP [A4T] | 3.72
66 | FATRSAAVPVSTSKPSSDLLDLQP [A4R] | 3.16
67 | FATISAAVPVSTSKPSSDLLDLQP [A4I] | 3.04
68 | FATCSAAVPVSTSKPSSDLLDLQP [A4C] | 2.66

Row | Variant | protein stability index
69 | FATVSAAVPVSTSKPSSDLLDLQP [A4V] | 3.9
70 | FATHSAAVPVSTSKPSSDLLDLQP [A4H] | 4.06
71 | FATMSAAVPVSTSKPSSDLLDLQP [A4M] | 3.31
72 | FATESAAVPVSTSKPSSDLLDLQP [A4E] | 4.57
73 | FATPSAAVPVSTSKPSSDLLDLQP [A4P] | 4.19
74 | FATWSAAVPVSTSKPSSDLLDLQP [A4W] | 1.64
75 | FATSSAAVPVSTSKPSSDLLDLQP [A4S] | 3.8
76 | FATNSAAVPVSTSKPSSDLLDLQP [A4N] | 3.81
77 | FATQSAAVPVSTSKPSSDLLDLQP [A4Q] | 3.9
78 | FATFSAAVPVSTSKPSSDLLDLQP [A4F] | 2.06
79 | FATLSAAVPVSTSKPSSDLLDLQP [A4L] | 2.89
80 | FATGSAAVPVSTSKPSSDLLDLQP [A4G] | 3.63
81 | FRTASAAVPVSTSKPSSDLLDLQP [A2R] | 3.46
82 | FQTASAAVPVSTSKPSSDLLDLQP [A2Q] | 4.11
83 | FTTASAAVPVSTSKPSSDLLDLQP [A2T] | 3.18
84 | FDTASAAVPVSTSKPSSDLLDLQP [A2D] | 5
85 | FNTASAAVPVSTSKPSSDLLDLQP [A2N] | 3.85
86 | FGTASAAVPVSTSKPSSDLLDLQP [A2G] | 4.09
87 | FMTASAAVPVSTSKPSSDLLDLQP [A2M] | 3.79
88 | FCTASAAVPVSTSKPSSDLLDLQP [A2C] | 3.09
89 | FFTASAAVPVSTSKPSSDLLDLQP [A2F] | 3.21
90 | FETASAAVPVSTSKPSSDLLDLQP [A2E] | 4.5
91 | FYTASAAVPVSTSKPSSDLLDLQP [A2Y] | 3.77
92 | FKTASAAVPVSTSKPSSDLLDLQP [A2K] | 3.99
93 | FSTASAAVPVSTSKPSSDLLDLQP [A2S] | 4.01
94 | FPTASAAVPVSTSKPSSDLLDLQP [A2P] | 4.27
